{
  "source": "patent US20050276799A1",
  "about": "(PDL BIOPHARMA, published 2005)",
  "binders": {"B1": {"name": "Dac-IgG1 wild-type (daclizumab) (antibody)", "heavy": "not shown", "light": "DIQMTQSPSTLSASVGDRVTITCSASSSISYMHWYQQKPGKAPKLLIYTTSNLASGVPARFSGSGSGTEFTLTISSLQPDDFATYYCHQRSTYPLTFGQGTKVEVKRTVAAPSVFIFPPSDEQLKSGTASVVCLLNNFYPREAKVQWKVDNALQSGNSQESVTEQDSKDSTYSLSSTLTLSKADYEKHKVYACEVTHQGLSSPVTKSFNRGEC", "notes": "Humanized anti-CD25; also called Dac-IgG1 WT"}, "B2": {"name": "Dac-IgG2M3 wild-type (antibody)", "heavy": "QVQLVQSGAEVKKPGSSVKVSCKASGYTFTSYRMHWVRQAPGQGLEWIGYINPSTGYTEYNQKFKDKATITADESTNTAYMELSSLRSEDTAVYYCARGGGVFDYWGQGTLVTVSSASTKGPSVFPLAPCSRSTSESTAALGCLVKDYFPEPVTVSWNSGALTSGVHTFPAVLQSSGLYSLSSVVTVPSSNFGTQTYTCNVDHKPSNTKVDKTVERKCCVECPPCPAPPAAAPSVFLFPPKPKDTLMISRTPEVTCVVVDVSHEDPEVQFNWYVDGVEVHNAKTKPREEQFNSTFRVVSVLTVVHQDWLNGKEYKCKVSNKGLPAPIEKTISKTKGQPREPQVYTLPPSREEMTKNQVSLTCLVKGFYPSDIAVEWESNGQPENNYKTTPPMLDSDGSFFLYSKLTVDKSRWQQGNVFSCSVMHEALHNHYTQKSLSLSPGK", "light": "DIQMTQSPSTLSASVGDRVTITCSASSSISYMHWYQQKPGKAPKLLIYTTSNLASGVPARFSGSGSGTEFTLTISSLQPDDFATYYCHQRSTYPLTFGQGTKVEVKRTVAAPSVFIFPPSDEQLKSGTASVVCLLNNFYPREAKVQWKVDNALQSGNSQESVTEQDSKDSTYSLSSTLTLSKADYEKHKVYACEVTHQGLSSPVTKSFNRGEC", "notes": "also called Dac-IgG2M3 WT"}, "B3": {"name": "Dac-IgG1 T250Q/M428L (antibody)", "heavy": "not shown", "light": "DIQMTQSPSTLSASVGDRVTITCSASSSISYMHWYQQKPGKAPKLLIYTTSNLASGVPARFSGSGSGTEFTLTISSLQPDDFATYYCHQRSTYPLTFGQGTKVEVKRTVAAPSVFIFPPSDEQLKSGTASVVCLLNNFYPREAKVQWKVDNALQSGNSQESVTEQDSKDSTYSLSSTLTLSKADYEKHKVYACEVTHQGLSSPVTKSFNRGEC", "notes": "also called T250Q/M428L daclizumab"}, "B4": {"name": "Hu1D10-IgG4 wild-type (antibody)", "heavy": "not shown", "light": "DIQMTQSPSSLSASVGDRVTITCRASENIYSYLAWYQQKPGKAPKLLVSNAKTLAEGVPSRFSGSGSGKQFTLTISSLQPEDFATYYCQHHYGNSYPFGQGTKLEIKRTVAAPSVFIFPPSDEQLKSGTASVVCLLNNFYPREAKVQWKVDNALQSGNSQESVTEQDSKDSTYSLSSTLTLSKADYEKHKVYACEVTHQGLSSPVTKSFNRGEC"}, "B5": {"name": "OST577-IgG2M3 wild-type (antibody)", "heavy": "QVQLVESGGGVVQPGRSLRLSCAASGFTFSRYGMHWVRQAPGKGLEWVAVISYDGSNKWYADSVKGRFTISRDNSKNTLFLQMHSLRAADTGVYFCAKDQLYFGSQSPGHYWGQGTLVTVSSASTKGPSVFPLAPCSRSTSESTAALGCLVKDYFPEPVTVSWNSGALTSGVHTFPAVLQSSGLYSLSSVVTVPSSNFGTQTYTCNVDHKPSNTKVDKTVERKCCVECPPCPAPPAAAPSVFLFPPKPKDTLMISRTPEVTCVVVDVSHEDPEVQFNWYVDGVEVHNAKTKPREEQFNSTFRVVSVLTVVHQDWLNGKEYKCKVSNKGLPAPIEKTISKTKGQPREPQVYTLPPSREEMTKNQVSLTCLVKGFYPSDIAVEWESNGQPENNYKTTPPMLDSDGSFFLYSKLTVDKSRWQQGNVFSCSVMHEALHNHYTQKSLSLSPSK", "light": "SYVLTQPPSVSVAPGQTARITCGGDNIGSKSVNWFQQKPGQAPVLVVYDDNERPSGISERFSGSNSGNTATLTISRVEAGDEADYYCQVWDSSSDHVVFGGGTKLTVLGQPKAAPSVTLFPPSSEELQANKATLVCLISDFYPGAVTVAWKADSSPVKAGVETTTPSKQSNNKYAASSYLSLTPEQWKSHRSYSCQVTHEGSTVEKTVAPTECS", "notes": "Human anti-HBV antibody, IgG2M3 (V234A, G237A) heavy, lambda-2 light"}, "B6": {"name": "OST577-IgG2M3 T250E/M428F (antibody)", "heavy": "QVQLVESGGGVVQPGRSLRLSCAASGFTFSRYGMHWVRQAPGKGLEWVAVISYDGSNKWYADSVKGRFTISRDNSKNTLFLQMHSLRAADTGVYFCAKDQLYFGSQSPGHYWGQGTLVTVSSASTKGPSVFPLAPCSRSTSESTAALGCLVKDYFPEPVTVSWNSGALTSGVHTFPAVLQSSGLYSLSSVVTVPSSNFGTQTYTCNVDHKPSNTKVDKTVERKCCVECPPCPAPPAAAPSVFLFPPKPKDELMISRTPEVTCVVVDVSHEDPEVQFNWYVDGVEVHNAKTKPREEQFNSTFRVVSVLTVVHQDWLNGKEYKCKVSNKGLPAPIEKTISKTKGQPREPQVYTLPPSREEMTKNQVSLTCLVKGFYPSDIAVEWESNGQPENNYKTTPPMLDSDGSFFLYSKLTVDKSRWQQGNVFSCSVFHEALHNHYTQKSLSLSPSK", "light": "SYVLTQPPSVSVAPGQTARITCGGDNIGSKSVNWFQQKPGQAPVLVVYDDNERPSGISERFSGSNSGNTATLTISRVEAGDEADYYCQVWDSSSDHVVFGGGTKLTVLGQPKAAPSVTLFPPSSEELQANKATLVCLISDFYPGAVTVAWKADSSPVKAGVETTTPSKQSNNKYAASSYLSLTPEQWKSHRSYSCQVTHEGSTVEKTVAPTECS"}, "B7": {"name": "OST577-IgG2M3 M428F (antibody)", "heavy": "QVQLVESGGGVVQPGRSLRLSCAASGFTFSRYGMHWVRQAPGKGLEWVAVISYDGSNKWYADSVKGRFTISRDNSKNTLFLQMHSLRAADTGVYFCAKDQLYFGSQSPGHYWGQGTLVTVSSASTKGPSVFPLAPCSRSTSESTAALGCLVKDYFPEPVTVSWNSGALTSGVHTFPAVLQSSGLYSLSSVVTVPSSNFGTQTYTCNVDHKPSNTKVDKTVERKCCVECPPCPAPPAAAPSVFLFPPKPKDTLMISRTPEVTCVVVDVSHEDPEVQFNWYVDGVEVHNAKTKPREEQFNSTFRVVSVLTVVHQDWLNGKEYKCKVSNKGLPAPIEKTISKTKGQPREPQVYTLPPSREEMTKNQVSLTCLVKGFYPSDIAVEWESNGQPENNYKTTPPMLDSDGSFFLYSKLTVDKSRWQQGNVFSCSVFHEALHNHYTQKSLSLSPSK", "light": "SYVLTQPPSVSVAPGQTARITCGGDNIGSKSVNWFQQKPGQAPVLVVYDDNERPSGISERFSGSNSGNTATLTISRVEAGDEADYYCQVWDSSSDHVVFGGGTKLTVLGQPKAAPSVTLFPPSSEELQANKATLVCLISDFYPGAVTVAWKADSSPVKAGVETTTPSKQSNNKYAASSYLSLTPEQWKSHRSYSCQVTHEGSTVEKTVAPTECS"}},
  "key": {"[1]": {"target": "T1, recombinant, GPI-linked human FcRn on cell line NS0 HuFcRn (memb), clone 7-3 (human, UniProt P55899 24-297; P61769 21-119)", "T1 construct": "Expressed from pDL208 on the surface of NS0 cells; also called human neonatal Fc receptor; not shown: human c-myc decapeptide flanked by linker peptides, then GPI linkage signal of human decay accelerating factor (vector p)", "experiment": "competition FACS vs biotinylated human IgG on NS0 cells expressing human FcRn, FBB pH 6.0"}, "[2]": {"target": "T1, recombinant, GPI-linked human FcRn on …", "experiment": "IC50 of wild-type / IC50 of this antibody, same assay"}, "[3]": {"target": "T1, recombinant, GPI-linked human FcRn on …", "experiment": "competition FACS vs biotinylated human IgG on NS0 cells expressing human FcRn, FBB pH 6.0", "remark": "listed apart in the source"}, "[4]": {"target": "T1, recombinant, GPI-linked human FcRn on …", "experiment": "IC50 of wild-type / IC50 of this antibody, same assay", "remark": "listed apart in the source"}, "[5]": {"target": "T1, recombinant, GPI-linked human FcRn on …", "experiment": "IC50 of wild-type / IC50 of this antibody, same assay", "remark": "listed apart in the source"}, "[6]": {"target": "T2, recombinant, GPI-linked rhesus FcRn on cell line NS0 RhFcRn, clone R-3 (rhesus, UniProt H9Z6D2 24-297; Q6V7J5 21-119, GPI-linked)", "T2 construct": "Expressed from pDL410 on the surface of NS0 cells; not shown: human c-myc decapeptide flanked by linker peptides, then GPI linkage signal of human decay accelerating factor (vector p)", "experiment": "IC50 of wild-type / IC50 of this antibody, same assay"}, "[7]": {"target": "T1, recombinant, GPI-linked human FcRn on …", "experiment": "IC50 of wild-type / IC50 of this antibody, same assay", "remark": "listed apart in the source"}, "[8]": {"target": "T1, recombinant, GPI-linked human FcRn on …", "experiment": "competition FACS vs biotinylated HuEP5C7-IgG2M3 on NS0 cells expressing human FcRn, FBB pH 6.0"}, "[9]": {"target": "T1, recombinant, GPI-linked human FcRn on …", "experiment": "competition FACS vs biotinylated OST577-IgG2M3 on NS0 cells expressing human FcRn, FBB pH 6.0"}, "[10]": {"target": "T2, recombinant, GPI-linked rhesus FcRn on …", "experiment": "IC50 of wild-type / IC50 of this antibody, same assay", "remark": "listed apart in the source"}, "[11]": {"target": "T1, recombinant, GPI-linked human FcRn on …", "experiment": "IC50 of wild-type / IC50 of this antibody, same assay", "remark": "listed apart in the source"}, "[12]": {"target": "T1, recombinant, GPI-linked human FcRn on …", "experiment": "IC50 of wild-type / IC50 of this antibody, same assay", "remark": "listed apart in the source"}, "[13]": {"target": "T1, recombinant, GPI-linked human FcRn on …", "experiment": "competition FACS vs biotinylated HuEP5C7-IgG2M3 on NS0 cells expressing human FcRn, FSB pH 6.0"}},
  "note": "Where two headings read alike, the source gives them in different places.",
  "data": [
    {"binder": "B1", "values": [
      {"measurement": "IC50", "setting": "[1]", "value": 20.4, "unit": "mg/L"},
      {"measurement": "Relative Binding", "setting": "[2]", "value": 1, "unit": "ratio"}
    ]},
    {"binder": "B2", "values": [
      {"measurement": "IC50", "setting": "[3]", "value": 71.4, "unit": "mg/L"},
      {"measurement": "Relative Binding", "setting": "[4]", "value": 1, "unit": "ratio"}
    ]},
    {"binder": "B3", "values": [
      {"measurement": "IC50", "setting": "[1]", "value": 0.626, "unit": "mg/L"},
      {"measurement": "Relative Binding", "setting": "[2]", "value": 33, "unit": "ratio"}
    ]},
    {"binder": "B4", "values": [
      {"measurement": "Relative Binding", "setting": "[5]", "value": 1, "unit": "ratio"},
      {"measurement": "Relative Binding", "setting": "[6]", "value": 1, "unit": "ratio"}
    ]},
    {"binder": "B5", "values": [
      {"measurement": "Relative Binding", "setting": "[7]", "value": 1, "unit": "ratio"},
      {"measurement": "IC50", "setting": "[8]", "value": 9.4, "unit": "mg/L"},
      {"measurement": "IC50", "setting": "[9]", "value": 11.9, "unit": "mg/L"},
      {"measurement": "Relative Binding", "setting": "[10]", "value": 1, "unit": "ratio"},
      {"measurement": "Relative Binding", "setting": "[11]", "value": 1, "unit": "ratio"},
      {"measurement": "Relative Binding", "setting": "[12]", "value": 1, "unit": "ratio"},
      {"measurement": "IC50", "setting": "[13]", "value": 10.7, "unit": "mg/L"}
    ]},
    {"binder": "B6", "values": [
      {"measurement": "Relative Binding", "setting": "[7]", "value": 15, "unit": "ratio"},
      {"measurement": "IC50", "setting": "[8]", "value": 0.639, "unit": "mg/L"}
    ]},
    {"binder": "B7", "values": [
      {"measurement": "Relative Binding", "setting": "[7]", "value": 3.2, "unit": "ratio"},
      {"measurement": "IC50", "setting": "[8]", "value": 2.97, "unit": "mg/L"},
      {"measurement": "Relative Binding", "setting": "[11]", "value": 3.1, "unit": "ratio"},
      {"measurement": "IC50", "setting": "[13]", "value": 3.4, "unit": "mg/L"}
    ]}
  ]
}
